From patent US7803382B2, “Method for inducing immune response to NY-CO-58” (Ludwig Institute for Cancer Research Ltd., priority 2001, dated 2010)

B1: SSX-2: serologically defined colon cancer antigen, protein SEQ ID NO:28 (protein, listed as Homo sapiens)
chain: MNGDDAFARRPTVGAQIPEKIQKAFDDIAKYFSKEEWEKMKASEKIFYVYMKRKYEAMTKLGFKATLPPFMCNKRAEDFQGNDLDNDPNRGNQVERPQMTFGRLQGISPKIMPKKPAEEGNDSEEVPEASGPQNDGKELCPPGKPTTSEKIHERSGPKRGEHAWTHRLRERKQLVIYEEISDPEEDDE
B2: CO-45 (Tudor like): serologically defined colon cancer antigen, protein SEQ ID NO:21 (protein, listed as Homo sapiens)
chain: RVKATLSERKIGDSCDKDLPLKFCEFPQKTIMPGFKTTVYVSHINDLSDFYVQLIEDEAEISHLSERLNSVKTRPEYYVGPPLQRGDMICAVFPEDNLWYRAVIKEQQPNDLLSVQFIDYGNVSVVHTNKIGRLDLVNAILPGLCIHCSLQGFEVPDNKNSKKMMHYFSQRTSEAAIRCEFVKFQDRWEVILADEHGIIADDMISRYALSEKSQVELSTQVIKSASSKSVNKSDIDTSVFLNWYNPEKKMIRAYATVIDGPEYFWCQFADTEKLQCLEVEVQTAGEQVADRRNCIPCPYIGDPCIVRYREDGHYYRALITNICEDYLVSVRLVDFGNIEDCVDPKALWAIPSELLSVPMQAFPCCLSGFNISEGLCSQEGNDYFYEIITEDVLEITILEIRRDVCDIPLAIVDLKSKGKSINEKMEKYSKTGIKSALPYENIDSEIKQTLGSYNLDVGLKKLSNKAVQNKIYMEQQTDELAEITEKDVNIIGTKPSNFRDPKTDNICEGFENPCKDKIDTEELEGELECHLVDKAEFDDKYLITGFNTLLPHANETKEILELNSLEVPLSPDDESKEFLELESIELQNSLVVDEEKGELSPVPPNVPLSQECVTKGAMELFTLQLPLSCEAEKQPELELPTAQLPLDDKMDPLSLGVSQKAQESMCTEDMRKSSCVESFDDQRRMSLHLHGADCDPKTQNEMNICEEEFVEYKNRDAISALMPFSLRKKAVMEASTIMVYQIIFQNYRTPTL
B3: CO-41 (MBD2): serologically defined colon cancer antigen, protein SEQ ID NO:23 (protein, listed as Homo sapiens)
chain: PSKLQKNKQRLRNDPLNQNKGKPDLNTTLPIRQTASIFKQPVTKVTNHPSNKVKSDPQRMNEQPRQLFWEKRLQGLSASDVTEQIIKTMELPKGLQGVGPGSNDETLLSAVASALHTSSAPITGQVSAAVEKNPAVWLNTSQPLCKAFIVTDEDIRKQEERVQQVRKKLEEALMADILSRAADTEEMDIEMDSGDEA
B4: MAGE-3: serologically defined colon cancer antigen, protein SEQ ID NO:29 (protein, listed as Homo sapiens)
chain: MPLEQRSQHCKPEEGLEARGEALGLVGAQAPATEEQEAASSSSTLVEVTLGEVPAAESPDPPQSPQGASSLPTTMNYPLWSQSYEDSSNQEEEGPSTFPDLESEFQAALSRKVAELVHFLLLKYRAREPVTKAEMLGSVVGNWQYFFPVIFSKASSSLQLVFGIELMEVDPIGHLYIFATCLGLSYDGLLGDNQIMPKAGLLIIVLAIIAREGDCAPEEKIWEELSVLEVFEGREDSILGDPKKLLTQHFVQENYLEYRQVPGSDPACYEFLWGPRALVETSYVKVLHHMVKISGGPHISYPPLHEWVLREGEE
B5: CO-9 (HDAC 5): serologically defined colon cancer antigen, protein SEQ ID NO:18 (protein, listed as Homo sapiens)
chain: EFLLSKSKEPTPGGLNHSLPQHPKCWGAHHASLDQSSPPQSGPPGTPPSYKLPLPGPYDSRDDFPLRKTASEPNLKVRSRLKQKVAERRSSPLLRRKDGTVISTFKKRAVEITGAGPGASSVCNSAPGSGPSSPNSSHSTIAENGFTGSVPNIPTEMLPQHRALPLDSSPNQFSLYTSPSLPNISLGLQATVTVTNSHLTASPKLSTQQEAERQALQSLRQGGTLTGKFMSTSSIPGCLLGVALEGDGSPHGHASLLQHVLLLEQARQQSTLIAVPLHGQSPLVTGERVATSMRTVGKLPRHRPLSRTQSSPLPQSPQALQQLVMQQQHQQFLEKQKQQQLQLGKILTKTGELPRQPTTHPEETEEELTEQQEVLLGEGALTMPREGSTESESTQEDLEEEDEEEDGEEEEDCIQVKDEEGESGAEEGPDLEEPGAGYKKLFSDAQPLQPLQVYQAPLSLATVPHQALGRTQSSPAAPGGMKNPPDQPVKHLFTTSVVYDTFMLKHQCMCGNTHVHPEHAGRIQSIWSRLQETGLLSKCERIRGRKATLDEIQTVHSEYHTLLYGTSPLNRQKLDSKKLLGPISQKMYAVLPCGGIGVDSDTVWNEMHSSSAVRMAVGCLLELAFKVAAGELKNGFAIIRPPGHHAEESTAMGFCFFNSVAITAKLLQQKLNVGKVLIVDWDIHHGNGTQQAFYNDPSVLYISLHRYDNGNFFPGSGAPEEVGGGPGVGYNVNVAWTGGVDPPIGDVEYLTAFRTVVMPIAHEFSPDVVLVSAGFDAVEGHLSPLGGYSVTARCFGHLTRQLMTLAGGRVVLALEGGHDLTAICDASEACVSALLSVKLQPLDEAVLQQKPNINAVATLEKVIEIQSKHWSCVQKFAAGLGRSLRGAQAGETEEAEM
B6: CO-42 (TRIP4): serologically defined colon cancer antigen, protein SEQ ID NO:22 (protein, listed as Homo sapiens)
chain: AEVKTPFDLAKAQENSNSVKKKTKFVNLYTRERQDRLAVLLPGRHPCDCLGQKHKLINNCLICGRIVCEQEGSGPCLFCGTLVCTHEEQDILQRDSNKSQKLLKKLMSGVENSGKVDISTKDLLPHQELRIKSGLEKAIKHKDKLLEFDRTSIRRTQVIDDESDYFASDSNQWLSKLERETLQKREEELRELRHASRLSKKVTIDFAGRKILEEENSLAEYHSRLDETIQAIANGTLNQPLTKLDRSSEEPLGVLVNPNMYQSPPQWLTTQVQPHRRRLSVLQDLD
B7: CO-61 (HIP1R): serologically defined colon cancer antigen, protein SEQ ID NO:19 (protein, listed as Homo sapiens)
chain: MFDYMDCELKLSESVFRQLNTAIAVSQMSSGQCRLAPLIQVIQDCSHLYHYTVKLLFKLHSCLPADTLQGHRDRFHEQFHSLRNFFRRASDMLYFKRLIQIPRLPEGPPNFLRASALAEHIKPVVVIPEEAPEDEEPENLIEISTGPPAGEPVVVADLFDQTFGPPNGSVKDDRDLQIESLKREVEMLRSELEKIKLEAQRYIAQLKSQVNALEGELEEQRKQKQKALVDNEQLRHELAQLRAAQLEGERSQGLREEAERKASATEARYNKLKEKHSELVHVHAELLRKNADTAKQLTVTQQSQEEVARVKEQLAFQVEQVKRESELKLEEKSDQLEKLKRELEAKAGELARAQEALSHTEQSKSELSSRLDTLSAEKDALSGAVRQREADLLAAQSLVRETEAALSREQQRSSQEQGELQGRLAERESQEQGLRQRLLDEQFAVLRGAAAEAAGILQDAVSKLDDPLHLRCTSSPDYLVSRAQEALDAVSTLEEGHAQYLTSLADASALVAALTRFSHLAADTIINGGATSHLAPTDPADRLIDTCRECGARALELMGQLQDQQALRHMQASLVRTPLQGILQLGQELKPKSLDVRQEELGAVVDKEMAATSAAIEDAVRRIEDMMNQARHASSGVKLEVNERILNSCTDLMKAIRLLVTTSTSLQKEIVESGRGAATQQEFYAKNSRWTEGLISASKAVGWGATQLVEAADKVVLHTGKYEELIVCSHEIAASTAQLVAASKVKANKHSPHLSRLQECSRTVNERAANVVASTKSGQEQIEDRDTMDFSGLSLIKLKKQEMETQVRVLELEKTLEAERMRLGELRKQHYVLAGASGSPGEEVAIRPSTAPRSVTTKKPPLAQKPSVAPRQDHQLDKKDGIYPAQLVNY
B8: CO-94 (seb4D): serologically defined colon cancer antigen, protein SEQ ID NO:17 (protein, listed as Homo sapiens)
chain: RPSLPRALPAAPHERSPARPGSVGGGAPPMLLQPAPCAPSAGFPRPLAAPGAMHLFAEGHHVHQDLRGRPAVPHYRRLAQEVLXGLRRHLRRPWSSPTAXRASPAATAS
modifications: X: residue not identified in the source
B9: CO-26 (MNK 1): serologically defined colon cancer antigen, protein SEQ ID NO:27 (protein, listed as Homo sapiens)
chain: HIQKQKHFNEREASRVVRDVAAALDFLHTKGIAHRDLKPENILCESPEKVSPVKICDFDLGSGMKLNNSCTPITTPELTTPCGSAEYMAPEVVEVFTDQATFYDKRCDLWSLGVVLYIMLSGYPPFVGHCGADCGWDRGEVCRVCQNKLFESIQEGKYEFPDKDWAHISSEAKDLISKLLVRDAKQKLSAAQVLQHPWVQGQAPEKGLPTPQVLQRNSSTMDLTLFAAEAIALNRQLSQHEENELAEEPEALADGLCSMKLSPPCKSRLARRRALAQAGRGENRSPPTAL
B10: REN-32 (Lamin C): serologically defined colon cancer antigen, protein SEQ ID NO:25 (protein, listed as Homo sapiens)
chain: METPSQRRATRSGAQASSTPLSPTRITRLQEKEDLQELNDRLAVYIDRVRSLETENAGLRLRITESEEVVSREVSGIKAAYEAELGDARKTLDSVAKERARLQLELSKVREEFKELKARNTKKEGDLIAAQARLKDLEALLNSKEAALSTALSEKRTLEGELHDLRGQVAKLEAALGEAKKQLQDEMLRRVDAENRLQTMKEELDFQKNIYSEELRETKRRHETRLVEIDNGKQREFESRLADALQELRAQHEDQVEQYKKELEKTYSAKLDNARQSAERNSNLVGAAHEELQQSRIRIDSLSAQLSQLQKQLAAKEAKLRDLEDSLARERDTSRRLLAEKEREMAEMRARMQQQLDEYQELLDIKLALDMEIHAYRKLLEGEEERLRLSPSPTSQRSRGRASSHSSQTQGGGSVTKKRKLESTESRSSFSQHARTSGRVAVEEVDEEGKFVRLRNKSNEDQSMGNWQIKRQNGDDPLLTYRFPPKFTLKAGQVVTIWAAGAGATHSPPTDLVWKAQNTWGCGNSLRTALINSTGEEVAMRKLVR

system: sera from colon cancer patients; experiment: Spot assay: reactivity of serologically defined colon cancer antigens with colon cancer patient sera; assay type: binding, human; settings: reactive sera/sera tested; includes autologous where applicable; sera 1:200
Method: Serum samples from patients with colon cancer were screened using a modification of the plaque assay, termed a spot assay. In this method, 80×120 mm nitrocellulose membranes were precoated with a film of NZY/0.7% Agarose/2.5 mM IPTG and placed on a reservoir layer of NZY/0.7% Agarose in a 86×128 mm Omni Tray (Nalge Nunc International Corp., Naperville, Ill.). Approximately 1.0×10^5 pfU of monoclonal phage encoding individual serologically defined colon cancer antigens, in a volume of 20 μl, were mixed with 20 μl of exponentially growing E. coli XL-1 Blue MRF and spotted (0.7-μl aliquots) on the precoated nitrocellulose membranes. Membranes were incubated for 15 hours at 37° C. A total of 75 different serologically defined colon cancer antigens were spotted in duplicate per nitrocellulose membrane. The agarose film was then removed from the membrane and the filters were processed for reactivity with individual serum samples (1:200 dilution), as described in Scanlan, et al., Int. J. Cancer 76:652-658 (1998) and Scanlan, et al., Int. J. Cancer 83:456-64, (1999).

Q: How did the “Reactivity of individual antigens” value turn out when B1 was run?
A: Its value is 2/75.

Q: How did the “Reactivity of individual antigens” value turn out when B2 was run?
A: The value was 4/76.

Q: Which “Reactivity of individual antigens” value does the source give for B3 here?
A: Its value is 3/76.

Q: With B4 as the molecule, how does the “Reactivity of individual antigens” value read?
A: Its value is 6/75.

Q: With B5 as the molecule, how does the “Reactivity of individual antigens” value read?
A: The value was 3/76.

Q: How did the “Reactivity of individual antigens” value turn out when B6 was run?
A: Its value is 7/76.

Q: For B7, which “Reactivity of individual antigens” value is on record?
A: The value was 5/75.

Q: How did the “Reactivity of individual antigens” value turn out when B8 was run?
A: The value was 4/75.

Q: How did the “Reactivity of individual antigens” value turn out when B9 was run?
A: Its value is 2/76.

Q: Which “Reactivity of individual antigens” value does the source give for B10 here?
A: The value was 3/75.
